Test results taken from patent US10144929B2, “Polypeptide inhibitors of Smad3 polypeptide activities” (Mayo Foundation for Medical Education and Research, priority 2016, dated 2018).
No end group written: not given here.

Molecular target: T1, pSmad3 (Mus musculus, UniProt Q8BUN5)
T1 construct: endogenous in cells; host or cells: AKR-2B cells
Test: Nuclear import of pSmad3 (nuclear fractions Western, immunofluorescence) in AKR-2B cells
Assay type: cell-based
Conditions: 90 minutes transduction, TGFβ 5 ng/mL 1 hour
Experimental: FIGS. 1A-C. SH3 domain of sorting nexin 9 (SNX9) specifically binds pSmad3 and prevents nuclear import. (A) Cartoon depicting domains in full length (FL) SNX9 and constructs used for GST pull down assays. Lysates from AKR-2B cells untreated (−) or stimulated (+) for 45 minutes with 5 ng/mL TGFβ were incubated with GST beads or the indicated fusion polypeptides immobilized on GST beads. Bound polypeptides were eluted and assessed by Western analysis for pSmad3 or pSmad2. Cell lysate reflects signal obtained from 10 μg total protein. (B) AKR-2B cells were transduced for 90 minutes with the indicated concentrations of the TAT-SNX9(SH3) fusion polypeptides. […] Quantitation of nuclear pSmads was performed with Image J software and represents the mean+/−sd of two experiments (Right). […] Quantitation of nuclear Smad3 from 30 cells in each of two experiments (Right).
FIGS. 3A-E. Inhibition of Smad3 signaling by a defined region of the SH3 domain in SNX9. […] (B) Nuclear fractions were prepared and assessed as in FIG. 1B following transduction with the indicated TAT-SNX9(SH3) fusion polypeptide (Left). Quantitation (mean+/−sd) of nuclear pSmad2 or pSmad3 from 2 experiments (Right). (C) Immunofluorescence of nuclear Smad3 was determined as in FIG. 1C from 30 cells in each of two experiments in the absence (−) or presence (+) of 5 ng/mL TGFβ and the indicated TAT-SNX9(SH3) fusion polypeptide (1.5 μM). […]

T1 sequence (Q8BUN5 whole entry): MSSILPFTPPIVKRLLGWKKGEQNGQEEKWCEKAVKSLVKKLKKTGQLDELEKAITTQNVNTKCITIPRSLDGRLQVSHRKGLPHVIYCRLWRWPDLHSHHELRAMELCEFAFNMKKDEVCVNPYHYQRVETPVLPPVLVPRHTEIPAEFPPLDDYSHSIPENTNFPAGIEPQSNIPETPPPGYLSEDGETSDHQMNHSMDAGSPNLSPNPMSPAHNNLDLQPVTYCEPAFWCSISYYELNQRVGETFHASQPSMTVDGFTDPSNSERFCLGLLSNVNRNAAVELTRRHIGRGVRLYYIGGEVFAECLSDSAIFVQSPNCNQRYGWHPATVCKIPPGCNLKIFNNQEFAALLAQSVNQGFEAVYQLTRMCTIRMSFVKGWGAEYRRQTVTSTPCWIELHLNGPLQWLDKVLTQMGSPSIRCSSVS

Substance: TAT-containing polypeptide encoding amino acids 27-42 of SNX9: 16 mer TAT-SNX9(SH3) fusion polypeptide, SNX9 amino acids 27-42; probably SH3-2-2 (SEQ ID NO:34) (IITITNPDVGGGWLEG; also: TAT cell-penetrating peptide fusion; UniProt Q9Y5X1 27-42, looked up, fragment)
- nuclear import of pSmad3: activity similar to that obtained with SB431542
